US11913033B2, “Luciferases and methods for using same” (LIGHT BIO, INC., priority 2017, dated 2024)

Columns and labels:
fungal luciferases = assay: Bioluminescence spectra of lysed transfected HEK293N cells with 3-hydroxyhispidin or analogs; format: biochemical; conditions: luciferin 660 μg/ml, pH 8.0, cell lysate
Description: Plasmids comprising coding sequences of fungal luciferases necessary for expression in mammalian cells were obtained as described in Example 3 and used for the transfection of HEK293N cells. 24 hours after the transfection procedure, the cells were detached from dishes using trypsin-Versen solution (0.025% trypsin), the medium was substituted with a phosphate saline buffer, pH 8.0, by centrifugation, the cells were resuspended and lysed using ultrasound; 3-hydroxyhispidin or one of analogs thereof ((E)-6-(4-diethylamino)styryl)-3,4-dihydroxy-2H-pyran-2-one, (E)-3,4-dihydroxy-6-(4-hydroxystyryl)-2H-pyran-2-one, E)-6-(2-1H-indol-3-yl)vinyl)-3,4-dihydroxy-2H-pyran-2-one, (E)-6-(2-(1,2,3,5,6,7-hexahydropyrido[3,2,1-ij]quinoline-9-yl)vinyl)-3,4-dihydroxy-2H-pyran-2-one and (E)-3,4-dihydroxy-6-(2-(6-hydroxynaphthalene-2-yl)vinyl)-2H-pyran-2-one) at a concentration of 660 μg/ml was added to the medium.
Varian Cary Eclipse spectrofluorimeter was used to detect bioluminescence spectra. All the samples emitted light with all examined luciferins.

[1] = test system: CT26 cells (Mus musculus carcinoma cells); assay: Labelling of implanted tumour cells in a living mouse, IVIS imaging; format: in vivo; conditions: subcutaneous CT26 cells; luciferin mixture 0.5 mg each intraperitoneally
Description: Vector containing the coding sequence of luciferase from Neonothopanus nambi under the control of a cytomegaloviral promoter was obtained as described in Example 3. In addition, a humanized nucleotide sequence encoding luciferase from Photinus pyralis firefly was synthesized and cloned into the same vector.
The obtained constructs were used to transfect CT26 cells (Mus musculus carcinoma cells). The cells expressing luciferase from Neonothopanus nambi were injected subcutaneously into the left half of a mouse's back, while cells expressing luciferase of Photinus pyralis were injected in the same manner into the right half of a mouse's back. 10 minutes after injection, a mixture of fungal luciferin (0.5 mg) and Photinus pyralis firefly luciferin (0.5 mg) was injected intraperitoneally. Bioluminescence of the mouse was then visualized using IVIS Spectrum CT (PerkinElmer).

[2] = Bioluminescence of isolated recombinant luciferase fragments from E. coli with 3-hydroxyhispidin; format: biochemical; conditions: 3-hydroxyhispidin added
Description: Sequence SEQ ID No: 52 was operably linked to the 5′ end of the nucleic acids encoding functional fragments of luciferases (SEQ ID NOs: 19, 21, 23, 25, 27, 29, 31, 33); the obtained constructs were cloned into pET-23 vector using BamHI and HindIII restriction endonucleases. The vector was used to transform Escherichia coli cells of BL21-CodonPlus strain (the derivative of Stratagene BL21-Gold high-yield strain) The cells were plated on Petri dishes containing LB medium comprising 1.5% agar, 100 μg/ml of ampicillin and 100 μg/ml of chloramphenicol, and incubated overnight at 37° C. Escherichia coli colonies were then transferred to 4 ml of liquid LB medium supplemented with ampicillin and chloramphenicol and incubated overnight at 37° C., with rocking. 1 ml of the overnight culture was transferred to 100 ml of Overnight Express Autoinduction medium (Novagen) containing preliminary added ampicillin and chloramphenicol. The culture was grown at 37° C. for 2.5 hours until it reached an optical density of 0.6 OE at 600 nm, and then it was grown at room temperature for 16 hours. The cells were then pelleted by centrifugation at 4500 rpm for 20 minutes in Eppendorf 5810R centrifuge, resuspended in 35 ml of buffer (50 mM Tris HCl, pH 8.0, 150 mM NaCl) and sonicated. […]

cells of HEK293NT line = assay: Cell labelling: luciferase co-transfected into HEK293NT cells, microscopy; format: cell-based, human
Description: Vector containing luciferase from Neonothopanus nambi under the control of a cytomegaloviral promoter obtained as described in Example 3 was co-transfected with pTurboFP635-N vector (Evrogen, Russia) encoding the red fluorescent protein, into the cells of HEK293NT line. Transfection was performed using FuGENE HD transfection reagent (Promega) according to the protocol recommended by the manufacturer. 24 hours after the transfection procedure, 3-hydroxyhispidin was added to the medium up to a final concentration of 660 μg/ml; and cell luminescence was analysed using Leica DM6000 microscope with a 20× objective. The cells were visualized in transmitted light, in the green and red channels for detecting fluorescence (FIG. 6).

[3] = Bioluminescence spectrum of luciferase expressed in Pichia pastoris, supernatant plus 3-hydroxyhispidin; format: biochemical; conditions: 3-hydroxyhispidin (25 μM) in 1% DDM
Description: In order to analyse the bioluminescence of expressed luciferase, Pichia pastoris colonies in which luminescence was observed were isolated and grown in 750 ml flasks filled with 250 ml of YPD medium for 72 hours at 30° C. and stirred at 200 rpm. Luciferase-expressing cells were then pelleted by centrifugation at 5000 g for 15 minutes at 4° C. The obtained pellet was resuspended in a 0.1 M phosphate buffer, pH 7.4, comprising 0.1% DDM for two hours at 4° C. The suspension was centrifuged at 21000 g for 30 min at 4° C. The bioluminescence reaction was activated by adding 750 μl of the obtained supernatant to 250 μl of the solution of 3-hydroxyhispidin (25 μM) in 1% DDM. Varian Cary Eclipse spectrofluorimeter was used to detect bioluminescence.

HEK293NT and HeLa cells = assay: Luminescence of mammalian cells transfected with humanized luciferases after adding 3-hydroxyhispidin; format: cell-based; conditions: 3-hydroxyhispidin 660 μg/ml, 24 hours after transfection
Excerpt: Coding sequences of luciferases obtained as shown in examples 1 and 2 were optimized (humanized) for expression in mammalian cells. Humanized nucleic acids were obtained by oligonucleotide synthesis using standard techniques. The nucleotide profile of humanized nucleic acids is shown in SEQ ID NOs: 44-51, the amino acid profile of the corresponding proteins is identical to wild-type proteins shown in SEQ ID NOs: 2, 4, 6, 8, 10, 12, 14, 16. The obtained nucleic acids were cloned into pmKate2-keratin vector (Evrogen, Russia) using NheI and NotI restriction sites instead of a sequence encoding mKate2-keratin fusion protein. Plasmid DNA was purified and transfected into HEK293NT and HeLa cells using FuGENE HD Transfection Reagent (Promega, USA) according to the manufacturer's protocol. 24 hours after the transfection procedure, 3-hydroxyhispidin at a concentration of 660 μg/ml was added to the medium, and cell luminescence was detected using IVIS Spectrum CT (PerkinElmer). Intensity of light emission of all samples was by an order of magnitude and greater than the signal coming from the non-transfected control cells (FIG. 2). […]

Molecule: O=c1oc(/C=C/c2c[nH]c3ccccc23)cc(O)c1O [(E)-6-(2-1H-indol-3-yl)vinyl)-3,4-dihydroxy-2H-pyran-2-one]
- luminescence optimum displacement (fungal luciferases): shift to the short-wavelength region

Molecule: O=c1oc(/C=C/c2ccc3cc(O)ccc3c2)cc(O)c1O [(E)-3,4-dihydroxy-6-(2-(6-hydroxynaphthalene-2-yl)vinyl)-2H-pyran-2-one]
- luminescence optimum displacement (fungal luciferases): shift to the long-wavelength region
- wavelength of significantly emitted photons (fungal luciferases): more than 580 nm

Molecule: luciferase from Photinus pyralis: firefly luciferase from Photinus pyralis, humanized sequence, comparison in mouse tumour labelling [reference compound]
- intensity of light emission of tumour [1]: 21000000 cu

B1: functional fragment of luciferase from Omphalotus olearius: recombinant Omphalotus olearius luciferase with N-terminal transmembrane domain removed, expressed in E. coli (protein)
chain: FIRKDYQTFLEVGPSYAPQNLQGYIIVCVLSLFRQEQKDVAIYDRLPEKRRWLGDLPFREGPRPSITSHIIQRQRTQLADAEFATKELIGKIIPRVQARHTNTTFLSTSKFEFHAQAIFLLPSIPINDPQNIPSHDTVRRTKREIAHMHDYHDCTLHLALAAQDGKEVLEKGWGQRHPLAGPGVPGPPTEWTFLYAPRSEEEVRVVEMIVEASVVYMTNDPADKIVEATVQGTEE
modifications: Amino acid sequence of the functional fragment of luciferase from Omphalotus olearius
notes: recombinant Omphalotus olearius luciferase with N-terminal transmembrane domain removed, expressed in E. coli
- intensity of emitted light, rank among recombinant functional fragments [2]: lowest intensity

B2: luciferase from Neonothopanus nambi: fungal luciferase from Neonothopanus nambi oxidizing 3-hydroxyhispidin with emission of light (protein, listed as Neonothopanus nambi)
chain: MRINISLSSLFERLSKLSSRSIAITCGVVLASAIAFPIIRRDYQTFLEVGPSYAPQNFRGYIIVCVLSLFRQEQKGLAIYDRLPEKRRWLADLPFREGTRPSITSHIIQRQRTQLVDQEFATRELIDKVIPRVQARHTDKTFLSTSKFEFHAKAIFLLPSIPINDPLNIPSHDTVRRTKREIAHMHDYHDCTLHLALAAQDGKEVLKKGWGQRHPLAGPGVPGPPTEWTFLYAPRNEEEARVVEMIVEASIGYMTNDPAGKIVENAK
- light signal of expressing cells (cells of HEK293NT line; 3-hydroxyhispidin 660 μg/ml, 24 hours after transfection): distinct light signal in the green region of the spectrum
- toxicity of luciferase expression to the cells (cells of HEK293NT line; HEK293NT cells): No signs of toxicity
- bioluminescence spectrum compared with Neonothopanus nambi mycelium bioluminescence [3]: substantially identical
- intensity of light emission of tumour [1]: 20000000 cu

B3: SEQ ID No:51 with the replacement of valine with isoleucine at position 146: Panellus stipticus luciferase variant with valine replaced by isoleucine at position 146 (protein, listed as Panellus stipticus)
chain: MNINLKALIGVCAVLITAAVFPFVRKDYHTFLEGGPSYAPQNLQGYIIVLVLSLFRGEETGLEIYDRLPEKRRWLEELPVREGPRPKTTSHIIQRQLNQHVDPDFGMNSLKGSVIRRLQSRHQDITQLALSKFEFHAEAIFLRPDIAINDPKHVPSHDTVRRTKREIAHMHDYHDYTCHLALAAQDGKQVIAKGWGQRHPLAGPGMPGPPTEWTFLYAPRNEAEVQVLETIIEASIGYMSNAPALGGSE
- oxidation of 3-hydroxyhispidin in a bioluminescent reaction (HEK293NT and HeLa cells): capable of the oxidation of 3-hydroxyhispidin

B4: functional fragment of luciferase from Neonothopanus nambi: recombinant Neonothopanus nambi luciferase with N-terminal transmembrane domain removed, expressed in E. coli (protein)
chain: IIRRDYQTFLEVGPSYAPQNFRGYIIVCVLSLFRQEQKGLAIYDRLPEKRRWLADLPFREGTRPSITSHIIQRQRTQLVDQEFATRELIDKVIPRVQARHTDKTFLSTSKFEFHAKAIFLLPSIPINDPLNIPSHDTVRRTKREIAHMHDYHDCTLHLALAAQDGKEVLKKGWGQRHPLAGPGVPGPPTEWTFLYAPRNEEEARVVEMIVEASIGYMTNDPAGKIVENAK
modifications: Amino acid sequence of the functional fragment of luciferase from Neonothopanus nambi
notes: recombinant Neonothopanus nambi luciferase with N-terminal transmembrane domain removed, expressed in E. coli
- intensity of emitted light, rank among recombinant functional fragments [2]: highest intensity
